Laboratory results: PMC9474506

Key:
[1] = target: Flag-tagged PU.1 F203Y (human) (UniProt P17947)
[2] = target: Flag-tagged PU.1 Q202L (human) (UniProt P17947)
[3] = target: Flag-tagged PU.1 Y252N (human) (UniProt P17947)
[4] = target: Flag-tagged PU.1 wild-type (human) (UniProt P17947)

myc-tagged c-Jun (from UniProt P05412 1-331) (natural protein)
luciferase activity of the human M-CSFR promoter reporter, F9 cells, PU.1 mutant co-transfected with c-Jun, fold activation [1]: 5 fold
luciferase activity of the human M-CSFR promoter reporter, F9 cells, PU.1 mutant co-transfected with c-Jun, fold activation [2]: 5 fold
luciferase activity of the human M-CSFR promoter reporter, F9 cells, PU.1 mutant co-transfected with c-Jun, fold activation [3]: 3.5 fold
luciferase activity of the human M-CSFR promoter reporter, F9 cells (no endogenous c-Jun), PU.1 co-transfected with c-Jun, fold activation [4]: 25 fold
